From patent publication US20230263863A1, “COMPOSITIONS HAVING NEUROREGENERATIVE APPLICATIONS” (GRIFOLS WORLDWIDE OPERATIONS LIMITED, priority 2020, published 2023)

System: SH-SY5Y cells
Test: Neurite outgrowth (Outgrowth Fold Change) in undifferentiated SH-SY5Y cells
Assay type: cell-based, human
Conditions: for neurogenesis / differentiation (neurite outgrowth): all proteins 0.2 mg/mL
Experimental: Undifferentiated SH-SY5Y cells were seeded into 96 well clear bottom plates in media containing 0.1% FBS. A serum-free base media was utilized as recommended by the supplier for SH-SY5Y cells (Sigma, Cat #94030304-1VL). Twenty-four hours after seeding cells, a 3× stock solution of ApoTf, final concentrations indicated on the x-axis, in serum free base media was added to the cells. ApoTf was obtained and purified from pooled human plasma and dosed at a final concentration of 0.2 mg/mL. Cells were allowed to differentiate for 6 days. Neurite growth was assessed by imaging and image analysis. At the time of analysis, a 10× solution of Tubulin Tracker (Molecular Probes, T34075) and Hoechst 33342 (Molecular Probes #H3570) nuclear stain was prepared.
Briefly, Tubulin Tracker dissolved in DMSO was diluted 1:1 with Pluronic F-127 and further diluted into HBSS to generate a 10× solution. Hoechst 33342 was added to the HBSS-Tubulin Tracker solution at 10 μg/mL to generate a 10× nuclear stain. The 10× staining solution (10 μL) was added directly to treated assay wells and incubated at 37° C. for 30 minutes. Following incubation, 110 μL of 0.4% Trypan Blue was added directly to assay wells and imaged on a Molecular Devices Nano imaging instrument. Nine images/well were acquired in the blue (Nuclei) and green (Tubulin) fluorescent channels for each image.
After obtaining images, the MetaExpress Neurite Outgrowth analysis module (Molecular Devices) was used to identify cells, cell bodies, and quantify neurites. The total number of neurite branches were divided by the total number of cells imaged to account for different numbers of cells in each test well. The Outgrowth Fold Change was determined by setting the untreated control cells to a value of 1 with all other treatments shown relative to untreated control.

B1: N-mut rec ApoTf: Y95F/Y188F transferrin N-lobe mutant protein, SEQ ID NO: 4, reduced iron-binding capacity (protein)
chain: VPDKTVRWCAVSEHEATKCQSFRDHMKSVIPSDGPSVACVKKASYLDCIRAIAANEADAVTLDAGLVYDAYLAPNNLKPVVAEFYGSKEDPQTFFYAVAVVKKDSGFQMNQLRGKKSCHTGLGRSAGWNIPIGLLYCDLPEPRKPLEKAVANFFSGSCAPCADGTDFPQLCQLCPGCGCSTLNQYFGFSGAFKCLKDGAGDVAFVKHSTIFENLANKADRDQYELLCLDNTRKPVDEYKDCHLAQVPSHTVVARSMGGKEDLIWELLNQAQEHFGKDKSKEFQLFSSPHGKDLLFKDSAHGFLKVPPRMDAKMYLGYEYVTAIRNLREGTCPEAPTDECKPVKWCALSHHERLKCDEWSVNSVGKIECVSAETTEDCIAKIMNGEADAMSLDGGFVYIAGKCGLVPVLAENYNKSDNCEDTPEAGYFAVAVVKKSASDLTWDNLKGKKSCHTAVGRTAGWNIPMGLLYNKINHCRFDEFFSEGCAPGSKKDSSLCKLCMGSGLNLCEPNNKEGYYGYTGAFRCLVEKGDVAFVKHQTVPQNTGGKNPDPWAKNLNEKDYELLCLDGTRKPVEEYANCHLARAPNHAVVTRKDKEACVHKILRQQQHLFGSNVTDCSGNFCLFRSETKDLLFRDDTVCLAKLHDRNTYEKYLGEEYVKAVGNLRKCSTSSLLEACTFRRP
modifications: Y95F/Y188F mutant
- neurogenesis / differentiation (neurite outgrowth) (FIG. 3B): almost equal to that of ApoTf and rec ApoTf at inducing differentiation

B2: BDNF: brain-derived neurotrophic factor; NGF superfamily; SEQ ID NO: 6 (protein, listed as Homo sapiens)
chain: MFHQVRRVMTILFLTMVISYFGCMKAAPMKEANIRGQGGLAYPGVRTHGTLESVNGPKAGSRGLTSLADTFEHVIEELLDEDQKVRPNEENNKDADLYTSRVMLSSQVPLEPPLLFLLEEYKNYLDAANMSMRVRRHSDPARRGELSVCDSISEWVTAADKKTAVDMSGGTVTVLEKVPVSKGQLKQYFYETKCNPMGYTKEGCRGIDKRHWNSQCRTTQSYVRALTMDSKKRIGWRFIRIDTSCVCTLTIKRGR
- differentiation (neurite outgrowth), factor alone (FIGS. 7A-7D, absence of ApoTf, BDNF 25 ng/mL, GDNF 1000 ng/mL, CNTF 250 ng/mL, PACAP 200 nM): differentiation was not induced

B3: apo-lactoferrin: structural and functional homologue of apo-transferrin, from Athens Research & Technology (protein, UniProt P02788 20-710, looked up)
Lactotransferrin: GRRRSVQWCAVSQPEATKCFQWQRNMRKVRGPPVSCIKRDSPIQCIQAIAENRADAVTLDGGFIYEAGLAPYKLRPVAAEVYGTERQPRTHYYAVAVVKKGGSFQLNELQGLKSCHTGLRRTAGWNVPIGTLRPFLNWTGPPEPIEAAVARFFSASCVPGADKGQFPNLCRLCAGTGENKCAFSSQEPYFSYSGAFKCLRDGAGDVAFIRESTVFEDLSDEAERDEYELLCPDNTRKPVDKFKDCHLARVPSHAVVARSVNGKEDAIWNLLRQAQEKFGKDKSPKFQLFGSPSGQKDLLFKDSAIGFSRVPPRIDSGLYLGSGYFTAIQNLRKSEEEVAARRARVVWCAVGEQELRKCNQWSGLSEGSVTCSSASTTEDCIALVLKGEADAMSLDGGYVYTAGKCGLVPVLAENYKSQQSSDPDPNCVDRPVEGYLAVAVVRRSDTSLTWNSVKGKKSCHTAVDRTAGWNIPMGLLFNQTGSCKFDEYFSQSCAPGSDPRSNLCALCIGDEQGENKCVPNSNERYYGYTGAFRCLAENAGDVAFVKDVTVLQNTDGNNNEAWAKDLKLADFALLCLDGKRKPVTEARSCHLAMAPNHAVVSRMDKVERLKQVLLHQQAKFGRNGSDCPDKFCLFQSETKNLLFNDNTECLARLHGKTTYEKYLGPQYVAGITNLKKCSTSPLLEACEFLRK
modifications: apo form
notes: structural and functional homologue of apo-transferrin, from Athens Research & Technology
- neurogenesis / differentiation (neurite outgrowth) (FIG. 4): induced differentiation
